Data reported in publication PMC6203986, “Crystal structure of carbonic anhydrase CaNce103p from the pathogenic yeast Candida albicans” (BMC Structural Biology, 2018).
Values joined by “and” are separate entries in the source; they are usually repeats but may differ in a detail not shown here. Identical values can stand only once.

B1: Δ29_CaNce103p, CaNce103p lacking the first 29 amino acids (domain or fragment)
chain: DNNNNLNGMNNTIKTHPVRVSSGNHNNFPFTLSSESTLQDFLNNNKFFVDSIKHNHGNQIFDLNGQGQSPHTLWIGCSDSRAGDQCLATLPGEIFVHRNIANIVNANDISSQGVIQFAIDVLKVKKIIVCGHTDCGGIWASLSKKKIGGVLDLWLNPVRHIRAANLKLLEEYNQDPKLKAKKLAELNVISSVTALKRHPSASVALKKNEIEVWGMLYDVATGYLSQVEIPQDEFEDLFHVHDEHDEEEYNPH
notes: Carbonic anhydrase Nce103p of Candida albicans (strain HE109) lacking the first 29 amino acids; C-terminus at residue 281; no tag (stop codon kept); source: E. coli BL23(DE3), purified (HiTrap Ni column, MonoQ)
B2: CaNce103p, carbonic anhydrase from Candida albicans, wild-type full length (enzyme)
chain: MGRENILKYQLEHDHESDLVTEKDQSLLLDNNNNLNGMNNTIKTHPVRVSSGNHNNFPFTLSSESTLQDFLNNNKFFVDSIKHNHGNQIFDLNGQGQSPHTLWIGCSDSRAGDQCLATLPGEIFVHRNIANIVNANDISSQGVIQFAIDVLKVKKIIVCGHTDCGGIWASLSKKKIGGVLDLWLNPVRHIRAANLKLLEEYNQDPKLKAKKLAELNVISSVTALKRHPSASVALKKNEIEVWGMLYDVATGYLSQVEIPQDEFEDLFHVHDEHDEEEYNPH
notes: Carbonic anhydrase Nce103p of Candida albicans, full length (C-terminus at residue 281); gene amplified from genomic DNA of strain HE109; stop codon kept so that no His-tag is attached; purified on Ni through four natural C-terminal histidines; also called wt; source: E. coli BL23(DE3), purified (HiTrap Ni column, MonoQ)

Target: the molecule itself
Experiment: SEC; HR200 Increase (Superdex 200 Increase 10/300 GL) column in 10 mM Tris-Cl, pH 8, 20 mM β-mercaptoethanol, 0.5 ml/min, calibrated with molecular weight markers; for Δ29 100 μl of 1.0 mg/ml injected; self-association

Protein	stoichiometry N
B1	4 and 2
B2	2 and 4
